Experiment: yeast display, Sf9 membrane polyspecificity reagent, FACS + sequencing; frameworks hold sequencing errors
How it was run: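 Galactose-induced (36–48 hours) yeast carrying a synthetic nanobody display library were exposed to 10% biotinylated, detergent-solubilized Sf9 membrane reagent at 4 °C for 1 hour. FACS followed streptavidin microbead enrichment, using low and high (top ~1%) gates for expression (anti-HA) and reagent binding (streptavidin). Colony PCR, MiSeq 2 × 250 sequencing and CDR-length filtering followed. Labels for polyreactivity reflect the gate of origin.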

Sequence	polyreactivity (PSR sort gate)
QVQLVESGGGLVQAGGSLRLSCAASGRIFGVYAMGWYREAPGKEREVVAAITYRGASTYADSVKGRFTISRVNAKKTVYLQMNSLKPEDTAVYYCATYPQYYFRYDYWGQGTQVTVSS	high polyreactivity
QVQLVESGGGLVQAGGSLRLSCAASGRIFWQYAMGWYRQAPGKERELVAAISRSGGSTYYADSVKGRFTISRDNAKNTVYLQMKCLTPEDTAVYYCAARKASGVPGSAGRPEYYYWGQGTQVTVSS	high polyreactivity
QVQLVESGGGLVQAGGSLRLSCAASGITFYIYAMGWYRQAPGKERELVATISWSDGRTYYADSVKGRFTISRDNAKNTVYCQMNSLKPEDTAVYYCAADWWYYQFDYEYWGQGTQVTVSS	low polyreactivity
QVQLVESGGGLVQAGGSLRLSCAASGRTFYWNAMGWYRQAPGKERELVAAITRNGGSTYYADSVKGRFTISRDNAKNNVYLQMNSLKPEDTAVYYCAARKRYGAGYDYWGQGTQVTVSS	high polyreactivity
QVHLVESGGGLVQAGGSLRLSFAASGRIFARYALGWYRPAPGKERELVAAITSGGSTHYADSVKGRFTIARENAKNTVYLQMNSLKPEDSAVYYCAAVYRGQRYDYWGQGTQVTVSS	high polyreactivity
QVQLVESGGGLVQAGGSLRLSCAASGRTFATYTMGWYRQAPGQERELVAAITRGGGSTFYADSVQGRFTITRDHAKNPVYLQMNSLKPEDTAVYYFAARIPGSFKSGYWGQGTQVTVSS	high polyreactivity
QVQLVESGGGLVQAGGSLRLSCAASGSIFDFYAMGWYRQAAGKERELVASITGRGGSTYYADSVKGRFSISRDKAKNTVYFQMNSLKPEDTAVYYCAAATFGRGGFEYWGQGTKVTVSS	high polyreactivity
QVQLVESGGGLVQAGGSLRLSCAASGSIFSVYSMGWYRQAPGKERELVADITRSGARTYYADSVKGRFTISRDNAKNTVYFPMNSLKPEDTAVYYCAADDPCYDQVEYWGQGTQVTVSS	high polyreactivity
QVQLVESGGGLVQAGGSLRLSCAASGITFYRYALGWYRQAPGKEREFVAAISRSGVSTYYADSVKGRFTISRDNAKNTVYLQMNSLKPEDTAVYYCNKVYYPGFGYEGDYWGQGTQVTVSS	high polyreactivity
QVQLVESGGGLVQAGGSLRLSCAASGRTFTTNAMGWYRQAPGKERELVAAITIGDDTYYADSVKGRFTISRDNAKNTVYLQMNSLKPEDTEVYYCSADYKRVPFVTQYVSKDGYWGHGTQVTVSS	low polyreactivity
QVQLVESGGGLVQAGGSLRLSCAASGRIQYNAMGWYRQAPGKEREFVAAISWSGGTTYYADSVKGRFTISRDNAKNTVYLQMNSLKPEDTAVYYCATPYTHWGQGTQVTVSS	high polyreactivity
QVQLVESGGGLVQAGGSLRLSCAASGSTFTYYAMGWYRQARGKERELVAAISSGGSTYYADSVKGRFTISRDNAKNTDYLQMNSLKPEDTAVYYCAARGYYGKFSGTGYWGQGTQVTVSS	high polyreactivity
QVQLVESGGGLVQAGGSLRLSCAASGLIFYRYTMGWYRQAPGKERELVAAIDDSDTSTYYADSVKGRFTISRDNAKNTVYLQMNSLKPEDTAVYYCAAVPLAPYAVRSRLDFDYWGQGTQVTVSS	low polyreactivity
QVQLVESGGCLVQAGGSLRFSCAASGSTFHRYVMGWYRQAPGKERELVAVINSTGGSTYYADSVKGRYTISRDNAKNTVYLQMNSLKPEDTAVYYCARVTRRGPGYTTLYSRYDYWGQGTQVNVSS	low polyreactivity
QVQLVESGGGLDQAGGSLRLSCAASGRIFNKYAMGWYRQAPGKERELVAAISSGASTYYADSVKGRFTISRDNAKNTVYLQMNSLKPEDTAVYYCAAGGSKGGNYWGQGTQVTVSS	high polyreactivity
QVQLVESGGGLVQAGGSLRLSCAASGRTFQTYAMGWYRQAPGKERELVAAISSDGSTYYADSVKGRFTISRDNAKNTVYLQMNSLKPEDTAVYYCNTDIGDKYYYHVRVDYEYWGQGTQVTLSS	low polyreactivity
QFQLVESGGGLVQAGGSLRLSCAASGRTFSRTAMGWYRQAPGKERELVAAITKGGGSTYYADSVKGRFTISRDNAKNTVYLQMNSLKPEDTAVYYCAAYKPSTRRYDYWGQGTQVTVSS	high polyreactivity
QVQLVESGGGLVQAGGILRLSCAASGSTIEFNAMGWYRPAPGKERELVAAISGSGASTYYADSVKGRFTISRDNAKNTVYLQMNSLTPEDTAVYYCNADSLYYDYQTVVVQALDYWGQGTQVTVSS	low polyreactivity
QVQLVESGGRLVQPGGSLRLSCAASGFIFFYYAMGWYSQAPGKESELVAAISSGGSTNYADSVKGRFTISRDNAKNTVYLQMNSLKPEDTAVYYCAKRPTGGYKYYYTTSKYDYWGQGTQVTVSS	low polyreactivity
QVQLVESGGGLVQAGGSLRLSCAASGRIFDHYAMGWYRQAPGKERELVAAITRSGGITYYADSVKGRFTISRDNAKNTVYLQMNSLKPEDTAVYYCAALSYRYTDKFDYWGQGTQVTVSS	low polyreactivity
QVQLVESGGGLVQAGGSLRLSCAASGSIFDRNAMGWYRQAPGKERELVAAISRSSGNTYYADSVKGRFTISRDNAKNTVYLQMNSLNPEDTAVYYCNKAVSYGTYKYYYWGQGTQVTVSS	high polyreactivity
QVQLVESGGGLVQAGGSLRLSCAASGRTFDVYAMGWYRPAPGKERELVAAITSGGSTYYADSVKGRYTISRDNAKNTVFLLINSLKPEDTAVYYCATDVDKSLYDYWGQGTQVTVSS	low polyreactivity

Sequence	polyreactivity (PSR sort gate)
QVQLVESGGGLVQAGGSLRLSCDASGITFVRYTIRWYRQAPGKEREFVAGITRGGSTYYADSVKGRFTISPDNAKNNVFLQRNSLKPEDTAVYYCAARPRFLRASVEYDYWGQGTQVTVSS	high polyreactivity
QVQLVESGGGVVQAGGSLRLSCAASGRIFHDYAMGWYRQAPGKERELVAGMTSGVRTYYADSVKGRFTISRDNEKNTVYLQMNSLKPEDTAVYYCARRLSPLYDYDYWGQGTQVTVSP	low polyreactivity
QVQLVESGGGLVQAGGSLRLSCAASGSTFISYAMGWYRQAPGKEREWVAAISRRGDSTYYADSVKGRFTISRDNAKNTVYLQMKSLKPEDTAVYYCAADVSGDKGSIHMNYWGQGTQVTVSS	low polyreactivity
QVQLVETGGGLVQAGGSLRLSCAASGRISYDYAMGWYRPPPGKERELVAAITTGGNTYYADSVKGRFTISRDNAKNTVYLQLNRLKPEDTAVYYCSVRGPYVRYNRYNYVYWGQGTQVTVSS	low polyreactivity
QVQLVESGGGLVQAGGSLRLSCASSGFTFYYYAMGWYRQAPGKEMELVAAIDTSDGSTYYADSVKGRFTISRDNAKNTVYLQMNSLKPEDTAVYYCAAEVDWVPFLLDYWGQGTQVTVSS	low polyreactivity
QVQLVESGGGLVQAGGSLRLSCAASGSTFNGYAMGWYRQAPGKERELVAAISKRGGSTYYADSVKGRFTISRDNAKNTVYLQMNSLKPEDTAVYYCAARNPTKYLMDYWGKGTQVTVSS	high polyreactivity
QVQLVESGGGLVQAGGSLRLSCAASGRIFWEYAMGGYRQAPGKERELVAAITWRVGSTYYADSVKGRFTISRDYAKNTVYLQMNSLKPEDTAVFYCAAARYLSIYNYWGHGTQVTVSS	low polyreactivity
QVQLVESGGGLVQAGGSLRLSCAASGITFAYNVMGWYRQAPGKERELVAAISWTGSSTYYADSVKGRFTISRDNAKNTVYLQMNSLKQEDTAVYYCAARQRYRYDYWGQGTQVTVSS	high polyreactivity
QVQLVESGGGLVQAGGSLRLSCAASGHIFTRNAMGWYRQAPGKERELVAAISRTGGSTYYADSVKGRFTISRDNAKNSVYLQMNSLKPEDTAVYYCAKRRQASEDYWGQGTQVTVSS	high polyreactivity
QVEHVESGGGLVQAGGILRLSCAASGSTFYGYAMGWYRQARGKERELVAAITSSGGSTYYADSVKGRFTISRDNAKNSVYLQMNSLKPEDTADYYCNAKRAPWGTLYNYWGQGSQVTVSS	high polyreactivity
QVQLVESGGGLVEAGGSLRLICAASGFIFLSNGMGWYRQGPGKERELVAAISSSGGSTYYADSVKGRFTISRDNAKNTVYLQMNSLKPEDTAVYYCAAEQYSVYETGSYDYWGQGTQVTVSS	low polyreactivity
QVQLVESGGGLVQAGGSLRLSCAASGYIFRVYAMGWYTPAPGKERELVAAISGSGGRTYYADSVKGRFKFSLDIAKNTVYLKMNSLKREDTAVYYCAATLYYYVGVRYDYWGQGSQVTVSS	high polyreactivity
QVQLVESGGGLVQAGGSLRLSCAASGFIFYRDAMGWYRPAPGKERELVAAISSRGVSTYYADSVKGRFTISRDNAKNTVYLLMNSLKPEDTAVYSCARISRYYALYDYWGQGTQVTVSS	high polyreactivity
QVQLVESGGGLVQAGGSLRLSCAASGRISVFNAMGWYRQAPGKERELVATITDGGSTYYADSVKGRFTISRDNAKNTVYLQMNSLKPEDTAVYYCAKKQVTTDVSSETFVLEMDYWGQGTQVTVSS	low polyreactivity
QVQLVESGGGLVQAGGSLRLSCSASGSTFERYAMGWYRQAPGKERELVAAISAIGDSTYYADSVKGRFTISRDNANNTVYLQMNSLKPEDTAVYYCAAKTSDYGYYYWGQGTQVTVSS	high polyreactivity
QVQLVESGGGLVQAGGSLRLSCAASGRTFGNYAMGWYRQAPGKERELVAAITSSGGTTYYADSVKGRFTISRDYAKNTVYLQMNSLKPEDTAVYYCAARHYPRNSWGYDYWGQGTQVNVSS	high polyreactivity
QVQLVESGGGLVQAGGSLRLSCAASGSIFVGYVMGWYRQAPGKERELVAAISRSGGRTYYADSVKGRFTISRDNAKNTVYLQMNSLKPEDTAVYYCAADSYTQPYGSLPHKQRYEYWGQGTQVTVSS	low polyreactivity
QVQLVESGGGLVQAGGSLRLICAASGRTFPYNAMGWYRQAPGKEREFVAVISKGGGRTYYADSVKGRFTISRDNAKNTVYLQMNSLKPEDTAVYYCAKRIGLTFWGQGTQVTVSS	high polyreactivity
QVQLVESGGGLVQAGGSLRLSCAASGITFSKYAMGWYRQAPGKERELVAAISQRGGSKYYADSVKGRFTISRDNAKNTVYLQMNSLKPEDTAVYYCNAEFYWSIIAYEYWGQGTQVTVSS	high polyreactivity
QVQLVESGGGLVQAGGSLRLSCAASGSTFRYYAMGWYRQAPGKERELVAAITQSGGITYYADSVKGRFTISRDNAKNTVYLQMNSLKPEDTAVYYCAKRYYVDYDYWGQGTHVTVSS	low polyreactivity
LVQLQESGGGLVQPGGRLRLSCAASGTISPGGYMGWYRQAPGKERELVASINVGGRTNYADSVKGRFTISRDNAKNTVYLQMNSLKPEDNAVSYCAVWGRNRLQLSYWGQGTQVTVSS	low polyreactivity

Reference: the nanobody polyreactivity screen of Harvey et al. (2022)
